In PMC12852032:

How the values were obtained:
[1] = molecular target: recombinant rat C2 (rat); assay: Meso Scale Discovery (electrochemiluminescence plate binding assay); rat C2 coated on the plate; serial dilutions of antibody; binding and washing at pH 7.4 + 1.25 mM Ca2+
[2] = molecular target: recombinant rat C2 (rat); assay: Meso Scale Discovery (electrochemiluminescence plate binding assay); rat C2 coated on the plate; serial dilutions of antibody; binding and washing at pH 7.4; detection with Sulfo-tag goat anti-human IgG

B1: empasiprubart (antibody, V domains shown)
VH: EVQLVQSGAEVKKPGASVKVSCKASGYTFTDYNMDWVRQATGQGLEWIGDINPNYESTGYNQKFKGRATMTVDKSISTAYMELSSLRSEDTAVYYCAREDDHDAFAYWGQGTLVTVSS
VL: DNVLTQSPDSLAVSLGERATISCRASKSVRTSGYNYMHWYQQKPGQPPKLLIYLASNLKSGVPDRFSGSGSGTDFTLTISSLQAEDAATYYCQHSRELPYTFGQGTKLEIK
- maximum MSD signal [1]: 24700
- maximum MSD signal [2]: 12000
